System: Escherichia coli TOP10
Assay: shrunken log2 fold change of peptide-encoding DNA abundance (4.5 h post-induction vs induction); higher = less antimicrobial activity (less host growth inhibition)
Conditions: time post-induction: 4.5 h; library: site-saturation at positions 5, 18, 19, 20
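Note: peptides expressed intracellularly from a pBAD plasmid library in pooled LB shake-flask culture, induced with 0.3% L-arabinose, DNA abundance read by NGS, three biological replicates, DESeq2 with apeglm shrinkage.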

Row | Sequence | shrunken log2 fold change
1 | RRIRCRPPRLPRPRPRPELPPRP | 0.762
2 | RRIRTRPPRLPRPRPRPAQDPRP | 0.111
3 | RRIRERPPRLPRPRPRPYCIPRP | -0.205
4 | RRIRLRPPRLPRPRPRPPGYPRP | -0.119
5 | RRIRGRPPRLPRPRPRPVMYPRP | 0.237
6 | RRIRPRPPRLPRPRPRPWWNPRP | -0.227
7 | RRIRLRPPRLPRPRPRPKAPPRP | 0.00522
8 | RRIRTRPPRLPRPRPRPCRGPRP | -0.398
9 | RRIRCRPPRLPRPRPRPYWAPRP | -1.21
10 | RRIRDRPPRLPRPRPRPYINPRP | -0.108
11 | RRIRQRPPRLPRPRPRPEAAPRP | 0.751
12 | RRIRGRPPRLPRPRPRPDAEPRP | 3.37
13 | RRIRNRPPRLPRPRPRPNGMPRP | -0.00904
14 | RRIRSRPPRLPRPRPRPQHIPRP | -1.21
15 | RRIRSRPPRLPRPRPRPTFYPRP | -0.231
16 | RRIRSRPPRLPRPRPRPGWFPRP | 0.44
17 | RRIRPRPPRLPRPRPRPKNDPRP | -0.108
18 | RRIRTRPPRLPRPRPRPCDPPRP | -0.072
19 | RRIRTRPPRLPRPRPRPDNMPRP | -0.909
20 | RRIRDRPPRLPRPRPRPNKEPRP | 0.0313
21 | RRIRHRPPRLPRPRPRPHAKPRP | -0.00884
22 | RRIRDRPPRLPRPRPRPIQFPRP | -0.177
23 | RRIRRRPPRLPRPRPRPTPWPRP | 0.841
24 | RRIRVRPPRLPRPRPRPTCPPRP | 0.243
25 | RRIRPRPPRLPRPRPRPGAHPRP | 0.355

Row | Sequence | shrunken log2 fold change
26 | RRIRDRPPRLPRPRPRPHTTPRP | -0.117
27 | RRIRMRPPRLPRPRPRPGPMPRP | 1.05
28 | RRIRPRPPRLPRPRPRPDCRPRP | -0.0347
29 | RRIRTRPPRLPRPRPRPLRWPRP | 0.856
30 | RRIRERPPRLPRPRPRPFLQPRP | -0.172
31 | RRIRYRPPRLPRPRPRPKVIPRP | -0.102
32 | RRIRDRPPRLPRPRPRPAVTPRP | -0.0403
33 | RRIRWRPPRLPRPRPRPYYPPRP | -1.09
34 | RRIRPRPPRLPRPRPRPSTGPRP | -0.263
35 | RRIRDRPPRLPRPRPRPGTIPRP | -0.485
36 | RRIRQRPPRLPRPRPRPENRPRP | 0.0211
37 | RRIRSRPPRLPRPRPRPGGIPRP | 0.274
38 | RRIRERPPRLPRPRPRPQLCPRP | 0.0651
39 | RRIRKRPPRLPRPRPRPYHPPRP | 0.0155
40 | RRIRVRPPRLPRPRPRPVWQPRP | 0.148
41 | RRIRARPPRLPRPRPRPHYMPRP | -0.381
42 | RRIRTRPPRLPRPRPRPTKQPRP | -0.0507
43 | RRIRWRPPRLPRPRPRPFCHPRP | -0.0562
44 | RRIRDRPPRLPRPRPRPNDEPRP | 0.418
45 | RRIRSRPPRLPRPRPRPMRCPRP | 0.361
46 | RRIRSRPPRLPRPRPRPMAPPRP | 0.257
47 | RRIRGRPPRLPRPRPRPRMSPRP | 0.28
48 | RRIRDRPPRLPRPRPRPLIPPRP | -0.516
49 | RRIRARPPRLPRPRPRPTFSPRP | 0.233
50 | RRIRYRPPRLPRPRPRPYIDPRP | -0.103

Row | Sequence | shrunken log2 fold change
51 | RRIRHRPPRLPRPRPRPDLAPRP | 0.0081
52 | RRIRWRPPRLPRPRPRPIELPRP | -0.0796
53 | RRIRCRPPRLPRPRPRPCQAPRP | -0.244
54 | RRIRSRPPRLPRPRPRPWMMPRP | -0.165
55 | RRIRLRPPRLPRPRPRPEMQPRP | 0.0197
56 | RRIRIRPPRLPRPRPRPKQQPRP | 0.0512
57 | RRIRRRPPRLPRPRPRPQLGPRP | 0.0467
58 | RRIRIRPPRLPRPRPRPLRMPRP | -0.04
59 | RRIRPRPPRLPRPRPRPIMPPRP | -0.257
60 | RRIRARPPRLPRPRPRPSMPPRP | -0.176
61 | RRIRRRPPRLPRPRPRPNRHPRP | -0.00811
62 | RRIRGRPPRLPRPRPRPNFEPRP | 1.87
63 | RRIRPRPPRLPRPRPRPNSKPRP | -0.557
64 | RRIRYRPPRLPRPRPRPSYEPRP | -0.629
65 | RRIRLRPPRLPRPRPRPKNAPRP | -0.238
66 | RRIRHRPPRLPRPRPRPRCFPRP | -0.143
67 | RRIRMRPPRLPRPRPRPDINPRP | 3.07
68 | RRIRERPPRLPRPRPRPFVFPRP | -0.379
69 | RRIRNRPPRLPRPRPRPENVPRP | -0.123
70 | RRIRWRPPRLPRPRPRPTEEPRP | 0.12
71 | RRIRHRPPRLPRPRPRPEKYPRP | -0.159
72 | RRIRKRPPRLPRPRPRPHFIPRP | 0.136
73 | RRIRKRPPRLPRPRPRPFWRPRP | 0.00905
74 | RRIRGRPPRLPRPRPRPNWEPRP | 0.21
75 | RRIRVRPPRLPRPRPRPFKTPRP | 0.146

Row | Sequence | shrunken log2 fold change
76 | RRIRDRPPRLPRPRPRPKNVPRP | -0.0304
77 | RRIRNRPPRLPRPRPRPRALPRP | 0.117
78 | RRIRHRPPRLPRPRPRPCIKPRP | -0.721
79 | RRIRTRPPRLPRPRPRPMAQPRP | 0.074
80 | RRIRKRPPRLPRPRPRPWAQPRP | 0.315
81 | RRIRDRPPRLPRPRPRPIGPPRP | 0.0272
82 | RRIRIRPPRLPRPRPRPGLWPRP | 0.0804
83 | RRIRSRPPRLPRPRPRPVYSPRP | -0.0582
84 | RRIRERPPRLPRPRPRPYLLPRP | -0.165
85 | RRIRNRPPRLPRPRPRPLCPPRP | -0.141
86 | RRIRHRPPRLPRPRPRPQPQPRP | -0.00539
87 | RRIRTRPPRLPRPRPRPVEFPRP | 0.0128
88 | RRIRARPPRLPRPRPRPRGSPRP | 0.708
89 | RRIRNRPPRLPRPRPRPTNTPRP | -0.34
90 | RRIRYRPPRLPRPRPRPYGKPRP | -1.27
91 | RRIRHRPPRLPRPRPRPQAEPRP | -0.0254
92 | RRIRERPPRLPRPRPRPVCGPRP | 0.243
93 | RRIRSRPPRLPRPRPRPHQMPRP | -0.207
94 | RRIRDRPPRLPRPRPRPEHPPRP | 0.054
95 | RRIRWRPPRLPRPRPRPREEPRP | 0.55
96 | RRIRWRPPRLPRPRPRPNVKPRP | -0.278
97 | RRIRCRPPRLPRPRPRPTLIPRP | 1.65
98 | RRIRHRPPRLPRPRPRPQCIPRP | -0.235
99 | RRIRCRPPRLPRPRPRPDKEPRP | -0.00172
100 | RRIRWRPPRLPRPRPRPDHDPRP | 0.0812

Row | Sequence | shrunken log2 fold change
101 | RRIRKRPPRLPRPRPRPYFDPRP | -0.383
102 | RRIRQRPPRLPRPRPRPFLCPRP | -0.336
103 | RRIRRRPPRLPRPRPRPTTSPRP | 0.591
104 | RRIRPRPPRLPRPRPRPYPGPRP | -0.159
105 | RRIRCRPPRLPRPRPRPDFAPRP | 0.115
106 | RRIRVRPPRLPRPRPRPSTYPRP | -0.288
107 | RRIRFRPPRLPRPRPRPEKEPRP | -0.0104
108 | RRIRYRPPRLPRPRPRPEDLPRP | -0.00674
109 | RRIRKRPPRLPRPRPRPVCDPRP | 0.683
110 | RRIRTRPPRLPRPRPRPIVNPRP | -0.655
111 | RRIRDRPPRLPRPRPRPVGVPRP | 0.189
112 | RRIRPRPPRLPRPRPRPANQPRP | 0.0414
113 | RRIRYRPPRLPRPRPRPSVVPRP | -0.844
114 | RRIRCRPPRLPRPRPRPMSWPRP | -0.159
115 | RRIRWRPPRLPRPRPRPQGCPRP | 0.0267
116 | RRIRQRPPRLPRPRPRPCMRPRP | 0.0607
117 | RRIRFRPPRLPRPRPRPWKFPRP | 0.0664
118 | RRIRSRPPRLPRPRPRPRAYPRP | 0.031
119 | RRIRSRPPRLPRPRPRPSKEPRP | -0.0581
120 | RRIRMRPPRLPRPRPRPTEIPRP | -0.0223
121 | RRIRTRPPRLPRPRPRPCSEPRP | -0.0314
122 | RRIRVRPPRLPRPRPRPVLVPRP | -0.311
123 | RRIRHRPPRLPRPRPRPGWCPRP | 0.399
124 | RRIRDRPPRLPRPRPRPNFLPRP | -0.277
125 | RRIRCRPPRLPRPRPRPRQLPRP | 0.0916

Row | Sequence | shrunken log2 fold change
126 | RRIRGRPPRLPRPRPRPLMIPRP | 0.139
127 | RRIRQRPPRLPRPRPRPPCKPRP | 0.0303
128 | RRIRYRPPRLPRPRPRPNVRPRP | -0.0227
129 | RRIRTRPPRLPRPRPRPTGCPRP | -0.388
130 | RRIRARPPRLPRPRPRPPGFPRP | 0.59
131 | RRIRMRPPRLPRPRPRPPCYPRP | -0.0907
132 | RRIRKRPPRLPRPRPRPVECPRP | 0.22
133 | RRIRCRPPRLPRPRPRPCHNPRP | -0.734
134 | RRIRTRPPRLPRPRPRPFQCPRP | -0.0173
135 | RRIRSRPPRLPRPRPRPWFIPRP | -0.311
136 | RRIRLRPPRLPRPRPRPVINPRP | -0.686
137 | RRIRNRPPRLPRPRPRPCNFPRP | -0.0737
138 | RRIRPRPPRLPRPRPRPICDPRP | -0.0726
139 | RRIRLRPPRLPRPRPRPHDFPRP | -0.205
140 | RRIRKRPPRLPRPRPRPKDHPRP | 0.308
141 | RRIRCRPPRLPRPRPRPQNDPRP | -0.505
142 | RRIRYRPPRLPRPRPRPTYVPRP | -0.0567
143 | RRIRSRPPRLPRPRPRPNHLPRP | -0.814
144 | RRIRKRPPRLPRPRPRPVMKPRP | 0.535
145 | RRIRPRPPRLPRPRPRPGDYPRP | -0.0215
146 | RRIRMRPPRLPRPRPRPTCAPRP | 0.827
147 | RRIRWRPPRLPRPRPRPHQNPRP | -0.00311
148 | RRIRPRPPRLPRPRPRPTMRPRP | 0.744
149 | RRIRDRPPRLPRPRPRPSWNPRP | -0.365
150 | RRIRSRPPRLPRPRPRPDPIPRP | -0.0376

Source: the supplement of paper PMC9112550, “Optimization of the antimicrobial peptide Bac7 by deep mutational scanning” (BMC Biology, 2022)
